Test results as given in PMC6563103 (Hepatology (Baltimore, Md.), 2019).

Molecular target: T1, glutathione S-transferase (GST)-CGI-58 (UniProt Q8WTS1 1-349)
T1 sequence (looked up): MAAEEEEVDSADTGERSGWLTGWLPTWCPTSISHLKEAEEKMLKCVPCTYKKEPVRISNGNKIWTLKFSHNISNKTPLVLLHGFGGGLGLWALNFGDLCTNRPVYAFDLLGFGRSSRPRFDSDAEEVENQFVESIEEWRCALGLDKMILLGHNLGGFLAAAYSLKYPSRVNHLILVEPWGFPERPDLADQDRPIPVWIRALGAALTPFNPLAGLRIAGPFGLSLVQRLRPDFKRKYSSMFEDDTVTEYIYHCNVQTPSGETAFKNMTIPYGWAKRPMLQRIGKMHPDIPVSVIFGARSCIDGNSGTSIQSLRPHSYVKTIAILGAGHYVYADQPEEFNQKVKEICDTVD
Assay: pull-down

molar ratio of PNPLA3 to CGI-58 in the precipitates: ~0.14 mol PNPLA3 per mol CGI-58
B1: recombinant PNPLA3(148M), deca-histidine and Flag fusion protein (enzyme, UniProt Q9NST1 1-481, looked up)
chain: MYDAERGWSLSFAGCGFLGFYHVGATRCLSEHAPHLLRDARMLFGASAGALHCVGVLSGIPLEQTLQVLSDLVRKARSRNIGIFHPSFNLSKFLRQGLCKCLPANVHQLISGKIGISLTRVSDGENVLVSDFRSKDEVVDALVCSCFMPFYSGLIPPSFRGVRYVDGGVSDNVPFIDAKTTITVSPFYGEYDICPKVKSTNFLHVDITKLSLRLCTGNLYLLSRAFVPPDLKVLGEICLRGYLDAFRFLEEKGICNRPQPGLKSSSEGMDPEVAMPSWANMSLDSSPESAALAVRLEGDELLDHLRLSILPWDESILDTLSPRLATALSEEMKDKGGYMSKICNLLPIRIMSYVMLPCTLPVESAIAIVQRLVTWLPDMPDDVLWLQWVTSQVFTRVLMCLLPASRSQMPVSSQQASPCTPEQDWPCWTPCSPKGCPAETKAEATPRSILRSSLNFFLGNKVPAGAEGLSTFPSFSLEKSL
